Results on two molecules are retold here after paper PMC2897852 (PLoS ONE, 2010).

As a reminder, the stoichiometry N is a count of units in the complex or per binding partner.

B1: purified FtsZ (M. tuberculosis) as used in the solid-phase binding and polymerization assays (natural protein)
chain: MTPPHNYLAVIKVVGIGGGGVNAVNRMIEQGLKGVEFIAINTDAQALLMSDADVKLDVGRDSTRGLGAGADPEVGRKAAEDAKDEIEELLRGADMVFVTAGEGGGTGTGGAPVVASIARKLGALTVGVVTRPFSFEGKRRSNQAENGIAALRESCDTLIVIPNDRLLQMGDAAVSLMDAFRSADEVLLNGVQGITDLITTPGLINVDFADVKGIMSGAGTALMGIGSARGEGRSLKAAEIAINSPLLEASMEGAQGVLMSIAGGSDLGLFEINEAASLVQDAAHPDANIIFGTVIDDSLGDEVRVTVIAAGFDVSGPGRKPVMGETGGAHRIESAKAGKLTSTLFEPVDAVSVPLHTNGATLSIGGDDDDVDVPPFMRR
notes: also called FtsZTB
B2: His-ClpX (M. tuberculosis ClpX, pRD21) (natural protein)
chain: not shown
notes: also called his-clpXTB; recombinant His-ClpX fusion protein

The target in data set [1] is B2. The data set is described as follows: ELISA. Particulars: both partners purified.
Data set [2] concerns the molecule itself. Put plainly: SEC; purified ClpX on a Superdex 200 10/300 GL column; data not shown. A general note: SEC sorts molecules by how far they enter the pores of the column.

As for B1, the binding result in data set [1] was “binds”.

With B2, the “stoichiometry N” value in data set [2] stood at 6.
